We go through one protein from US20130004493.

The data set deals with T1, Epithelial membrane protein 2 (EMP2), human, P54851.
T1 chain: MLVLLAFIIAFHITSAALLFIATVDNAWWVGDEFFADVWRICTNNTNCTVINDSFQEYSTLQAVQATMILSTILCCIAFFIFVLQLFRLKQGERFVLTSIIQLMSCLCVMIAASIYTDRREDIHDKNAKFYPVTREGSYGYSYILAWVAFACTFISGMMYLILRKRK

B1: Focal adhesion kinase (FAK), human (protein)
chain: AAAYLDPNLNHTPNSSTKTHLGTGMERSPGAMERVLKVFHYFESNSEPTTWASIIRHGDATDVRGIIQKIVDSHKVKHVACYGFRLSHLRSEEVHWLHVDMGVSSVREKYELAHPPEEWKYELRIRYLPKGFLNQFTEDKPTLNFFYQQVKSDYMLEIADQVDQEIALKLGCLEIRRSYWEMRGNALEKKSNYEVLEKDVGLKRFFPKSLLDSVKAKTLRKLIQQTFRQFANLNREESILKFFEILSPVYRFDKECFKCALGSSWIISVELAIGPEEGISYLTDKGCNPTHLADFTQVQTIQYSNSEDKDRKGMLQLKIAGAPEPLTVTAPSLTIAENMADLIDGYCRLVNGTSQSFIIRPQKEGERALPSIPKLANSEKQGMRTHAVSVSETDDYAEIIDEEDTYTMPSTRDYEIQRERIELGRCIGEGQFGDVHQGIYMSPENPALAVAIKTCKNCTSDSVREKFLQEALTMRQFDHPHIVKLIGVITENPVWIIMELCTLGELRSFLQVRKYSLDLASLILYAYQLSTALAYLESKRFVHRDIAARNVLVSSNDCVKLGDFGLSRYMEDSTYYKASKGKLPIKWMAPESINFRRFTSASDVWMFGVCMWEILMHGVKPFQGVKNNDVIGRIENGERLPMPPNCPPTLYSLMTKCWAYDPSRRPRFTELKAQLSTILEEEKAQQEERMRMESRRQATVSWDSGGSDEAPPKPSRPGYPSPRSSEGFYPSPQHMVQTNHYQVSGYPGSHGITAMAGSIYPGQASLLDQTDSWNHRPQEIAMWQPNVEDSTVLDLRGIGQVLPTHLMEERLIRQQQEMEEDQRWLEKEERFLKPDVRLSRGSIDREDGSLQGPIGNQHIYQPVGKPDPAAPPKKPPRPGAPGHLGSLASLSSPADSYNEGVKLQPQEISPPPTANLDRSNDKVYENVTGLVKAVIEMSSKIQPAPPEEYVPMVKEVGLALRTLLATVDETIPLLPASTHREIEMAQKLLNSDLGELINKMKLAQQYVMTSLQQEYKKQMLTAAHALAVDAKNLLDVIDQARLKMLGQTRPH
For the protein B1, the “phosphorylation of FAK at Tyr-397, Tyr-407, Tyr-861 and Tyr-925 (quantitative Western blot, ARPE-19/EMP2 against ARPE-19)” value is “EMP2 overexpression enhanced phosphorylation of FAK two- to three-fold at Tyr-397, Tyr-407, Tyr-861, and Tyr-925”.
